Laboratory results published in patent US20260150817A1 (LEVERAGEN, published 2026).
Where a chain is given by its changes, count along the chain named. Like-named read-outs stand apart in the source and are kept apart here.

B1: M320_5 Nb-Fc (Fc fusion)
chain: EVQLQQSGPELVKPGASVKMSCKASGYTFTDYYIKWEKQSHGKSLEWIGDINPKNGETFYNQQFKGKATLTVDKSSSTAYMQLNSLTSEDSAVYYCARKEYGDYGYAVDYWGQGTSVTVSS
notes: also called LVGN-S3205
B2: M2S320_75 Nb-Fc (Fc fusion)
chain: B1 chain with I34M, E37L, S40N, K54N, E57D, Q63K, K74T, V108T
notes: also called LVGN-S32075
B3: M2S320_377 Nb-Fc (Fc fusion)
chain: B1 chain with I34V, E37K, K54N, E57D, Q63K, G66D, D103N, Y104F
notes: also called LVGN-S320377
B4: M2S521_623 Nb-Fc (Fc fusion)
chain: EVQLQQSGPELVKPGASVKISCKASGYTFTDYYMKWEKQSHGKSLEWIGDINPNNGGTRYNQKFRGKATLTVDKSSSTAYMELRSLTSEDSAVYYCARLEDDYYGYAVDYWGQGTSVTVSS
notes: also called LVGN-S521623
B5: M2S521_193 Nb-Fc (Fc fusion)
chain: B4 chain with E37V, T58A, R65K, K67R, A97S, D102G
notes: also called LVGN-S521193
B6: MS521_35 Nb-Fc (Fc fusion)
chain: EVQLQQSGPELVKPGASVKISCKASGYTFTDYYMKWVKQRHGQSLEWIGNINPTNGDTNYSQNFKGKATLTVDKSSTTAYMELRSLTSEDSAVYYCARLEDGYYGYAVDYWGQGTSVTVSS
notes: also called LVGN-S52135
B7: M2S521_378 Nb-Fc (Fc fusion)
chain: B4 chain with E37V, N54K, R59N, R65K, G66D, D102G, V108I, G112S
notes: also called LVGN-S521378
B8: M2S521_72 Nb-Fc (Fc fusion)
chain: B4 chain with E37A, D50H, N54V, G57D, R59S, R65K, A79V, D102G, A107T, V108M
notes: also called LVGN-S52172

What was measured:
[1] = biological target: T1, Spike protein of the COVID-19 Spike-ACE2 Binding Assay Kit (Raybiotech) (SARS-CoV-2, UniProt P0DTC2 319-541)
[2] = biological target: T1, Spike protein of the COVID-19 …; remark: listed apart in the source

Row | Binder | IC50 [1] | IC50 [2]
1 | B1 | 0.4 nM | 0.397 nM
2 | B2 | 0.12 nM | –
3 | B3 | 1.6 nM | –
4 | B4 | 0.13 nM | –
5 | B5 | 0.16 nM | –
6 | B6 | 0.49 nM | 0.489 nM
7 | B7 | 2.2 nM | –
8 | B8 | 0.041 nM | –
